{
  "source": "paper PMC3462262",
  "about": "(Molecular cell, 2012)",
  "binders": {"B1": {"name": "UbcH5c subunit of the UbcH5c-O~Ub conjugate (Cys85Ser, S22R) (enzyme)", "chain": "not shown", "modifications": "active site Ser85 oxyester-linked to the Ub C-terminus"}},
  "target": "Ub subunit of the UbcH5c-O~Ub conjugate (UniProt P0CG48 1-76, C-terminus oxyester-linked to Ser85 of UbcH5c)",
  "assay": "NMR titration",
  "data": [
    {"binder": "B1", "values": [
      {"measurement": "binding result", "result": "binds"}
    ]}
  ]
}
